Assay results reported in patent publication US20210130436A1 (published 2021).
Where a chain is given by its changes, count along the chain named. In names and notes the source's numbering stands.

T1: CD96 (UniProt P40200 22-585, limits assumed)
T1 construct: whole, on cells
T1 sequence (looked up): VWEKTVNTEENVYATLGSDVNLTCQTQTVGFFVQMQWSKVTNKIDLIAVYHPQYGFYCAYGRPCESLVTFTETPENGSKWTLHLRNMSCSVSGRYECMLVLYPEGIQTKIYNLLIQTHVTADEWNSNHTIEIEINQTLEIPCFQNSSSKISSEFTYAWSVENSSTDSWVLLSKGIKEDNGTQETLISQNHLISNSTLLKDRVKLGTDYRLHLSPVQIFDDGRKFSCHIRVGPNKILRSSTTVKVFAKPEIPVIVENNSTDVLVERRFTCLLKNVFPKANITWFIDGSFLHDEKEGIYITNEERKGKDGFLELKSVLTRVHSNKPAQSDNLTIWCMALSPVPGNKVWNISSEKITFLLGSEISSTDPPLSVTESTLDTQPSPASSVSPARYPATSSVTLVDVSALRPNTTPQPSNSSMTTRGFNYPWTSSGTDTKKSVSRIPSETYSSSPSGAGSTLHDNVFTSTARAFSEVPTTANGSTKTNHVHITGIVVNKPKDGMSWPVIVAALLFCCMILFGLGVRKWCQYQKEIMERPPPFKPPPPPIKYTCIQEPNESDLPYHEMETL

T2: CD226 (UniProt Q15762 19-336)
T2 construct: whole, on cells
T2 sequence (looked up): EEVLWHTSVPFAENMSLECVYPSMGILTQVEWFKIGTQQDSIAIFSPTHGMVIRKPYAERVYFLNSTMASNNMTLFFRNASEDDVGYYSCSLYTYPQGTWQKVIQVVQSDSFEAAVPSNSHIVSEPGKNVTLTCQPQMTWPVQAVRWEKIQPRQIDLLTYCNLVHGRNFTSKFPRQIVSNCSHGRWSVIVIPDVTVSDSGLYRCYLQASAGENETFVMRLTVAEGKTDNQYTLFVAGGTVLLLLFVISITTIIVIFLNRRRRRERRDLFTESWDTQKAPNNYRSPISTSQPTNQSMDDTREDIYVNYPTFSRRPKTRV

B1: CD80 IgV-Fc T13R/Q27L/Q33L/E35D/T41S/M47V/N48K/V68M/L85M (Fc fusion, not shown: a dimerising Fc or GST)
chain: VIHVTKEVKEVARLSCGHNVSVEELALTRIYWLKDKKMVLSMMSGDVKIWPEYKNRTIFDITNNLSIMILALRPSDEGTYECVVMKYEKDAFKREHLAEVTLSVKAD
B2: CD80 IgV-Fc T13R/Q33R/E35D/M38I/M47L/V68M (Fc fusion, not shown: a dimerising Fc or GST)
chain: B1 chain with L27Q, L33R, M38I, S41T, V47L, K48N, M85L
B3: CD80 IgV-Fc T13R/Q33R/E35D/M47L/V68M/L85M (Fc fusion, not shown: a dimerising Fc or GST)
chain: B1 chain with L27Q, L33R, S41T, V47L, K48N
B4: CD80 IgV-Fc T13R/Q33L/E35D/M47V/T62S/V68M/L85M (Fc fusion, not shown: a dimerising Fc or GST)
chain: B1 chain with L27Q, S41T, K48N, T62S
B5: CD80 IgV-Fc T13R/Q33R/E35D/M47L/V68M (Fc fusion, not shown: a dimerising Fc or GST)
chain: B1 chain with L27Q, L33R, S41T, V47L, K48N, M85L
B6: CD80 IgV-Fc T13R/Q33L/E35D/M47L/V68M/L85M (Fc fusion, not shown: a dimerising Fc or GST)
chain: B1 chain with L27Q, S41T, V47L, K48N
B7: CD80 IgV-Fc T13R/Q33R/E35D/M38I/M47L/V68M/L85M (Fc fusion, not shown: a dimerising Fc or GST)
chain: B1 chain with L27Q, L33R, M38I, S41T, V47L, K48N
B8: CD80 IgV-Fc T13R/Q33R/E35D/M38I/M47L/V68M/E95V/L97Q (Fc fusion, not shown: a dimerising Fc or GST)
chain: B1 chain with L27Q, L33R, M38I, S41T, V47L, K48N, M85L, E95V, L97Q
B9: variant CD80 IgV-Fc E35D/M47V/V68M/L85M (Fc fusion, not shown: small tags and cut ends; a dimerising Fc or GST)
chain: B1 chain with R13T, L27Q, L33Q, S41T, K48N
B10: variant CD80 IgV-Fc E35D/D46E/M47L/V68M/T79M/L85M (Fc fusion, not shown: small tags and cut ends; a dimerising Fc or GST)
chain: B1 chain with R13T, L27Q, L33Q, S41T, D46E, V47L, K48N, T79M
B11: CD80 E35D/D46V/M47V/N48K/V68M IgV-Fc (Fc fusion, not shown: small tags and cut ends; a dimerising Fc or GST)
chain: B1 chain with R13T, L27Q, L33Q, S41T, D46V, M85L
B12: CD80 E35D/D46V/M47V/V68M/L85Q IgV-Fc (Fc fusion, not shown: small tags and cut ends; a dimerising Fc or GST)
chain: B1 chain with R13T, L27Q, L33Q, S41T, D46V, K48N, M85Q
B13: CD80 E35D/M47V/N48K/K89N IgV-Fc (Fc fusion, not shown: small tags and cut ends; a dimerising Fc or GST)
chain: B1 chain with R13T, L27Q, L33Q, S41T, M68V, M85L, K89N
B14: CD155 S52L/L104E variant IgV-Fc fusion (Fc fusion, not shown: a dimerising Fc or GST)
chain: WPPPGTGDVVVQAPTQVPGFLGDSVTLPCYLQVPNMEVTHVSQLTWARHGELGSMAVFHQTQGPSYSESKRLEFVAARLGAELRNASLRMFGLRVEDEGNYTCEFVTFPQGSRSVDIWLRVL
B15: CD155 T45Q/S52Q variant IgV-Fc fusion (Fc fusion, not shown: a dimerising Fc or GST)
chain: B14 chain with T45Q, L52Q, E104L
B16: CD155 T45Q/S52R/G111R variant IgV-Fc fusion (Fc fusion, not shown: a dimerising Fc or GST)
chain: B14 chain with T45Q, L52R, E104L, G111R
B17: variant CD80 IgV-Fc E35D/M38T/D46E/M47V/N48S (Fc fusion, not shown: small tags and cut ends; a dimerising Fc or GST)
chain: B1 chain with R13T, L27Q, L33Q, M38T, S41T, D46E, K48S, M68V, M85L
notes: Fc fusion of the variant IgV

molecular target: human CD28 (human, UniProt P10747 19-220); test: flow cytometry, Jurkat cells (CD28)

Binder	Fold change to WT CD80 [fold]	MFI at 33.3 nM [MFI]
B1	0.5	14.6
B2	0.4	13.8
B3	3.6	112
B4	0.5	16
B5	0.4	14.1
B6	0.5	15.7
B7	0.5	14.2
B8	35.4	1110

molecular target: T3, human PD-L1 (human, UniProt Q9NZQ7 19-290); test: flow cytometry; PD-L1 MFI over CD28 MFI
T3 construct: also called huPD-L1; CD274
T3 sequence (Q9NZQ7 19-290): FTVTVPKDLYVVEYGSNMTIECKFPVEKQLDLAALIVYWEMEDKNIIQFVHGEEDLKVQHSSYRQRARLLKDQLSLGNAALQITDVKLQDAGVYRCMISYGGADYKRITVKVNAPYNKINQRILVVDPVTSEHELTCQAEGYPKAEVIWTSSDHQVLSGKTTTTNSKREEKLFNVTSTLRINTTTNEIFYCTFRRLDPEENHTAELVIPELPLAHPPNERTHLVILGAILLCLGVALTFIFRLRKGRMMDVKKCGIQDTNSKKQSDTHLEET

Binder	Ratio of PDL1:CD28 [ratio]
B1	224
B2	325
B3	169
B4	248
B5	1040
B6	206
B7	77.9
B8	17.2

molecular target: T4, human CTLA4 (huCTLA4), full-length, stably expressed on CHO cells (human, UniProt P16410 36-223); test: flow cytometry, CHO cells expressing huCTLA4
T4 construct: whole, on cells
T4 sequence (P16410 36-223): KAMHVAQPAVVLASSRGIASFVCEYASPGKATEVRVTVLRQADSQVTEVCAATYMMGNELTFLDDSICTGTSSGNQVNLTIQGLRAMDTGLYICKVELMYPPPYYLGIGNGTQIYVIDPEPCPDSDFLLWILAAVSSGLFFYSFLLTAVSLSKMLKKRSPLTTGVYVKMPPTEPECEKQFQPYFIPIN

Binder	MFI at 33.3 nM [MFI]
B9	16000

molecular target: T5, human PD-L1 (huPD-L1), full-length, stably expressed on CHO cells (human, UniProt Q9NZQ7 19-290); test: flow cytometry, CHO cells expressing huPD-L1
T5 construct: whole, on cells
T5 sequence (Q9NZQ7 19-290): as the sequence (Q9NZQ7 19-290) above

Binder	MFI at 33.3 nM [MFI]
B9	9180
B10	8640

molecular target: T6, human CTLA-4 (human, UniProt P16410 36-223); test: flow cytometry, CHO cells stably expressing CTLA4
T6 construct: also called huCTLA4
T6 sequence (P16410 36-223): as the sequence (P16410 36-223) above

Binder	Fold change to WT CD80 [fold]	MFI at 33.3 nM [MFI]
B1	0.1	109
B3	7.7	13400
B4	0.1	105
B5	11.8	20700
B6	0.1	141
B7	12.6	22000
B8	11.8	20700

molecular target: T3, human PD-L1; test: flow cytometry, CHO cells stably expressing PD-L1

Binder	Fold change to WT CD80 [fold]	MFI at 33.3 nM [MFI]
B1	63.5	3270
B2	87	4480
B3	368	18900
B4	77	3970
B5	285	14700
B6	62.7	3230
B7	21.5	1110
B8	372	19200

molecular target: T7, CD28 endogenously expressed on Jurkat/IL2 reporter cells (human, UniProt P10747 19-220); test: flow cytometry, Jurkat cells (CD28), Fc fusion at 33.3 nM
T7 construct: whole, on cells; Target on Jurkat cells; also called Jurkats (CD28)

Binder	MFI at 33.3 nM [MFI]
B11	1080
B12	331
B13	701

molecular target: T8, CD28, endogenously expressed on Jurkat/IL2 reporter cells (human, UniProt P10747 19-220); test: flow cytometry, Jurkat/IL2 reporter cells (endogenous CD28)
T8 construct: whole, on cells

Binder	MFI at 33.3 nM [MFI]
B9	201
B10	403

molecular target: T1, CD96; test: flow cytometry on cells expressing CD96, Fc fusion at 100 nM

Binder	MFI at 100 nM [MFI]
B14	1830
B15	2450
B16	2340

molecular target: T2, CD226; test: flow cytometry on cells expressing CD226, Fc fusion at 100 nM

Binder	MFI at 100 nM [MFI]
B14	2210
B15	5790
B16	2080

molecular target: T9, human CTLA4 expressed on CHO cells (human, UniProt P16410 36-223); test: flow cytometry, CHO cells stably expressing CTLA4, Fc fusion at 33.3 nM
T9 construct: whole, on cells; Target on CHO cells stably expressing CTLA4; also called huCTLA4
T9 sequence (P16410 36-223): as above

Binder	MFI at 33.3 nM [MFI]
B11	23900
B12	36500
B13	43800

molecular target: T10, human PD-L1 expressed on CHO cells (human, UniProt Q9NZQ7 19-290); test: flow cytometry, CHO cells stably expressing PD-L1, Fc fusion at 33.3 nM
T10 construct: whole, on cells; Target on CHO cells stably expressing PD-L1; also called huPD-L1
T10 sequence (Q9NZQ7 19-290): as the sequence (Q9NZQ7 19-290) above

Binder	MFI at 33.3 nM [MFI]
B11	25900
B12	26300
B13	6670

molecular target: T11, human PD-L1, expressed on CHO cells (human, UniProt Q9NZQ7 19-290); test: flow cytometry on CHO cells stably expressing human PD-L1; PE anti-human Fc
T11 construct: Full-length surface expression construct transduced by lentivirus into CHO cells; also called huPD-L1; CD274
T11 sequence (Q9NZQ7 19-290): as above

Binder	MFI at 33.3 nM [MFI]
B17	19400

molecular target: T7, CD28 endogenously expressed on …; test: flow cytometry, Jurkat cells (CD28); MFI relative to WT CD80 ECD-Fc (Abcam)

Binder	Fold change to WT CD80 [fold]
B11	1.5
B12	0.5
B13	1

molecular target: T10, human PD-L1 expressed on CHO cells; test: flow cytometry; MFI on PD-L1 cells over MFI on CD28 (Jurkat) cells at 33.3 nM

Binder	Ratio of PDL1:CD28 [ratio]
B11	23.9
B12	79.4
B13	9.5

molecular target: T9, human CTLA4 expressed on CHO cells; test: flow cytometry, CHO cells stably expressing CTLA4; MFI relative to WT CD80 ECD-Fc (Abcam)

Binder	Fold change to WT CD80 [fold]
B11	0.6
B12	0.9
B13	1.1

molecular target: T10, human PD-L1 expressed on CHO cells; test: flow cytometry, CHO cells stably expressing PD-L1; MFI relative to WT CD80 ECD-Fc (Abcam)

Binder	Fold change to WT CD80 [fold]
B11	203
B12	205
B13	52.1
